Measurements from IntAct's records for PubMed 28620713.

B1: Cytochrome P450 1B1 (Homo sapiens), Q16678 (parent)
chain: MGTSLSPNDPWPLNPLSIQQTTLLLLLSVLATVHVGQRLLRQRRRQLRSAPPGPFAWPLIGNAAAVGQAAHLSFARLARRYGDVFQIRLGSCPIVVLNGERAIHQALVQQGSAFADRPAFASFRVVSGGRSMAFGHYSEHWKVQRRAAHSMMRNFFTRQPRSRQVLEGHVLSEARELVALLVRGSADGAFLDPRPLTVVAVANVMSAVCFGCRYSHDDPEFRELLSHNEEFGRTVGAGSLVDVMPWLQYFPNPVRTVFREFEQLNRNFSNFILDKFLRHCESLRPGAAPRDMMDAFILSAEKKAAGDSHGGGARLDLENVPATITDIFGASQDTLSTALQWLLLLFTRYPDVQTRVQAELDQVVGRDRLPCMGDQPNLPYVLAFLYEAMRFSSFVPVTIPHATTANTSVLGYHIPKDTVVFVNQWSVNHDPLKWPNPENFDPARFLDKDGLINKDLTSRVMIFSVGKRRCIGEELSKMQLFLFISILAHQCDFRANPNEPAKMNFSYGLTIKPKSFKVNVTLRESMELLDSAVQNLQAKETCQ

Variants of: B1
Settings: with tie2_human TEK

effect of a mutation on the interaction	Variant
decreasing interaction strength	MGTSLSPNDPWPLNPLSIQQTTLLLLLSVLATVHVGQRLLRQRRRQLRSAPPGPFAWPLIGNAAAVGQAAHLSFARLARRYGDVFQIRLGSCPIVVLNGERAIHQALVQQGSAFADRPAFASFRVVSGGRSMAFGHYSEHWKVQRRAAHSMMRNFFTRQPRSRQVLEGHVLSEARELVALLVRGSADGAFLDPRPLTVVAVANVMSAVCFGCRYSHDDPEFRELLSHNEEFGRTVGAGSLVDVMPWLQYFPNPVRTVFREFEQLNRNFSNFILDKFLRHCESLRPGAAPRDMMDAFILSAEKKAAGDSHGGGARLDLENVPATITDIFGASQDTLSTALQWLLLLFTRYPDVQTRVQAELDQVVGRDHLPCMGDQPNLPYVLAFLYEAMRFSSFVPVTIPHATTANTSVLGYHIPKDTVVFVNQWSVNHDPLKWPNPENFDPARFLDKDGLINKDLTSRVMIFSVGKRRCIGEELSKMQLFLFISILAHQCDFRANPNEPAKMNFSYGLTIKPKSFKVNVTLRESMELLDSAVQNLQAKETCQ [R368H]
disrupting interaction strength	MGTSLSPNDPWPLNPLSIQQTTLLLLLSVLATVHVGQRLLRQRRRQLRSAPPGPFAWPLIGNAAAVGQAAHLSFARLARRYGDVFQIRLGSCPIVVLNGERAIHQALVQQGSAFPDRPAFASFRVVSGGRSMAFGHYSEHWKVQRRAAHSMMRNFFTRQPRSRQVLEGHVLSEARELVALLVRGSADGAFLDPRPLTVVAVANVMSAVCFGCRYSHDDPEFRELLSHNEEFGRTVGAGSLVDVMPWLQYFPNPVRTVFREFEQLNRNFSNFILDKFLRHCESLRPGAAPRDMMDAFILSAEKKAAGDSHGGGARLDLENVPATITDIFGASQDTLSTALQWLLLLFTRYPDVQTRVQAELDQVVGRDRLPCMGDQPNLPYVLAFLYEAMRFSSFVPVTIPHATTANTSVLGYHIPKDTVVFVNQWSVNHDPLKWPNPENFDPARFLDKDGLINKDLTSRVMIFSVGKRRCIGEELSKMQLFLFISILAHQCDFRANPNEPAKMNFSYGLTIKPKSFKVNVTLRESMELLDSAVQNLQAKETCQ [A115P]

Variants of: B1
Settings: with tie2_human TEK
Remark: another data set of the same source

effect of a mutation on the interaction	Variant
disrupting interaction strength	MGTSLSPNDPWPLNPLSIQQTTLLLLLSVLATVHVGQRLLRQRRRQLRSAPPGPFAWPLIGNAAAVGQAAHLSFARLARRYGDVFQIRLGSCPIVVLNGERAIHQALVQQGSAFADRPAFASFRVVSGGRSMAFGHYSEHWKVQRRAAHSMMRNFFTRQPRSRQVLEGHVLSEARELVALLVRGSADGAFLDPRPLTVVAVANVMSAVCFGCRYSHDDPEFRELLSHNKEFGRTVGAGSLVDVMPWLQYFPNPVRTVFREFEQLNRNFSNFILDKFLRHCESLRPGAAPRDMMDAFILSAEKKAAGDSHGGGARLDLENVPATITDIFGASQDTLSTALQWLLLLFTRYPDVQTRVQAELDQVVGRDRLPCMGDQPNLPYVLAFLYEAMRFSSFVPVTIPHATTANTSVLGYHIPKDTVVFVNQWSVNHDPLKWPNPENFDPARFLDKDGLINKDLTSRVMIFSVGKRRCIGEELSKMQLFLFISILAHQCDFRANPNEPAKMNFSYGLTIKPKSFKVNVTLRESMELLDSAVQNLQAKETCQ [E229K]

Variants of: B1
Settings: with tie2_human TEK
Remark: another data set of the same source

effect of a mutation on the interaction	Variant
with no effect	MGTSLSPNDPWPLNPLSIQQTTLLLLLSVLATVHVGQRLLRQRRRQLRSAPPGPFAWPLIGNAAAVGQAAHLSFARLARRYGDVFQIRLGSCPIVVLNGERAIHQALVQQGSAFADRPAFASFRVVSGGRSMAFGHYSEHWKVQRRAAHSMMRNFFTRQPRSRQVLEGHVLSEARELVALLVRGSADGAFLDPRPLTVVAVANVMSAVCFGCRYSHDDPEFRELLSHNKEFGRTVGAGSLVDVMPWLQYFPNPVRTVFREFEQLNRNFSNFILDKFLRHCESLRPGAAPRDMMDAFILSAEKKAAGDSHGGGARLDLENVPATITDIFGASQDTLSTALQWLLLLFTRYPDVQTRVQAELDQVVGRDRLPCMGDQPNLPYVLAFLYEAMRFSSFVPVTIPHATTANTSVLGYHIPKDTVVFVNQWSVNHDPLKWPNPENFDPARFLDKDGLINKDLTSRVMIFSVGKRRCIGEELSKMQLFLFISILAHQCDFRANPNEPAKMNFSYGLTIKPKSFKVNVTLRESMELLDSAVQNLQAKETCQ [E229K]
